The series in a line: self-splicing fitness, log relative to wild type (ln ratio); higher = more splicing; Tetrahymena group I intron in knt gene, E. coli kanamycin selection, DiMSum; sequences stand for … in CUCUCU…GGAGGGAAAAGUUAUCAGGCAUGCACCUGGUAGCUAGUCUUUAAACCAAUAGAUUGCAUCGGUUUAAAAGGCAAGACCGUCAAAUUGCGGGAAAGGGGUCAACAGCCGUUCAGUACCAAGUCUCAGGGGAAACUUUGAGAUGGCCUUGCAAAGGGUAUGGUAAUAAGCUGACGGACAUGGUCCUAACCACGCAGCCAAGUCCUAAGUCAACAGAUCUUCUGUUGAUAUGGAUGCAGUUCACAGACUAAAUGUCGGUCGGGGAAGAUGUAUUCUUCUCAUAAGAUAUAGUCGGACCUCUCCUUAAUGGGAGCUAGCGGAUGAAGUGAUGCAACACUGGAGCCGCUGGGAACUAAUUUGUAUGCGAAAGUAUAUUGAUUAGUUUUGGAGUACUCGUGGUCG
Summed up:
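Six replicate transformations of E. coli BL21(DE3) with a pET-22b(+) library were grown overnight at 37°C or 30°C. The library randomised all eight P1ex-region intron nucleotides, the intron lying in the knt kanamycin-resistance gene, and plates were LB agar with or without 25 μg/mL kanamycin plus 100 μg/mL carbenicillin, 50 μM IPTG and 0.2% rhamnose. Pooled colonies were amplicon-sequenced on an Illumina HiSeq 2500, and fitness is the DiMSum error-weighted combination of wild-type-normalised replicate fold changes, kanamycin versus none.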

± gives the uncertainty stated by the source.

As for GAUCAGCAAUAUUACGGGGC, the “self-splicing fitness (ln)” value is -3.2 ± 0.25 (30 °C) and -2.38 ± 0.22 (37 °C).

On to ACCGAGCAAUAUUACGACUA, for which the “self-splicing fitness (ln)” value was -2.66 ± 0.19 (30 °C) and -1.7 ± 0.17 (37 °C).

As to CGCUAGCAAUAUUACGCAAC, the “self-splicing fitness (ln)” value (37 °C) is -1.61 ± 0.49.

Consider GUUCAGCAAUAUUACGGACG, for which the “self-splicing fitness (ln)” value runs as follows: (30 °C) -2.15 ± 0.11; (37 °C) -0.428 ± 0.11.

As for AUCAAGCAAUAUUACGCAUU, the “self-splicing fitness (ln)” value by setting is: (30 °C) -2.32 ± 0.12; (37 °C) -1.69 ± 0.14.

On to AUUCAGCAAUAUUACGUGGC, for which the “self-splicing fitness (ln)” value runs as follows: (30 °C) -3.76 ± 0.14; (37 °C) -2.21 ± 0.16.

CGAUAGCAAUAUUACGUAUA: the “self-splicing fitness (ln)” value by setting is: (30 °C) -2.37 ± 0.15; (37 °C) -3.14 ± 0.23.

With UAUCAGCAAUAUUACGAUUC, the “self-splicing fitness (ln)” value reads like this: (30 °C) -0.925 ± 0.081; (37 °C) -0.0952 ± 0.092.

As to GCAAAGCAAUAUUACGUCUU, the “self-splicing fitness (ln)” value was -1.14 ± 0.074 (30 °C) and -1.11 ± 0.075 (37 °C).

As to CAUUAGCAAUAUUACGCCGA, the “self-splicing fitness (ln)” value reads like this: (30 °C) -2.32 ± 0.19; (37 °C) -2.18 ± 0.2.

For UGACAGCAAUAUUACGGUCC, the “self-splicing fitness (ln)” value is -0.746 ± 0.18 (30 °C) and -0.15 ± 0.23 (37 °C).

In the case of AAGCAGCAAUAUUACGCGAA, the “self-splicing fitness (ln)” value (30 °C) is -1.77 ± 0.083 and the “self-splicing fitness (ln)” value (37 °C) was -1.2 ± 0.1.

On to UUGUAGCAAUAUUACGCCCA, for which the “self-splicing fitness (ln)” value (30 °C) turned out to be 0.762 ± 0.34 and the “self-splicing fitness (ln)” value (37 °C) was -0.0943 ± 0.38.

In the case of AUGCAGCAAUAUUACGAAUC, the “self-splicing fitness (ln)” value was -3.82 ± 0.24 (30 °C) and -2.87 ± 0.2 (37 °C).

For UUGUAGCAAUAUUACGUUCU, the “self-splicing fitness (ln)” value was -2.42 ± 0.15 (30 °C) and -1.69 ± 0.2 (37 °C).

With GCAAAGCAAUAUUACGACUA, the “self-splicing fitness (ln)” value is -0.955 ± 0.05 (30 °C) and -0.475 ± 0.055 (37 °C).

With UGAUAGCAAUAUUACGUGCU, the “self-splicing fitness (ln)” value reads like this: (30 °C) -1.84 ± 0.094; (37 °C) -1.59 ± 0.14.

In the case of GGGAAGCAAUAUUACGGGAC, the “self-splicing fitness (ln)” value was -2.61 ± 0.21 (30 °C) and -3.45 ± 0.21 (37 °C).

For the sequence UAGUAGCAAUAUUACGCCUA, the “self-splicing fitness (ln)” value (30 °C) is -0.556 ± 0.14 and the “self-splicing fitness (ln)” value (37 °C) is -0.575 ± 0.14.

With UAACAGCAAUAUUACGGGAU, the “self-splicing fitness (ln)” value was -3.08 ± 0.15 (30 °C) and -2.43 ± 0.16 (37 °C).

With GGCAAGCAAUAUUACGCAGA, the “self-splicing fitness (ln)” value is -1.23 ± 0.15 (30 °C) and -0.852 ± 0.16 (37 °C).

For UGCAAGCAAUAUUACGGGAU, the “self-splicing fitness (ln)” value (30 °C) is -3.04 ± 0.13 and the “self-splicing fitness (ln)” value (37 °C) was -2.89 ± 0.15.

Take GGACAGCAAUAUUACGUAGA: the “self-splicing fitness (ln)” value was -0.242 ± 0.08 (30 °C) and -0.126 ± 0.091 (37 °C).

As to UGACAGCAAUAUUACGCACU, the “self-splicing fitness (ln)” value by setting is: (30 °C) 0.279 ± 0.051; (37 °C) -0.101 ± 0.059.

GCAUAGCAAUAUUACGUGCG: the “self-splicing fitness (ln)” value reads like this: (30 °C) -2.26 ± 0.1; (37 °C) -1.91 ± 0.14.

Take CCGGAGCAAUAUUACGGAUU: the “self-splicing fitness (ln)” value (37 °C) is -1.82 ± 0.2.

As for CUGGAGCAAUAUUACGUGCU, the “self-splicing fitness (ln)” value is -2.27 ± 0.23 (30 °C) and -2.91 ± 0.34 (37 °C).

As to ACUAAGCAAUAUUACGUGAC, the “self-splicing fitness (ln)” value was -3.82 ± 0.21 (30 °C) and -1.28 ± 0.14 (37 °C).

Consider AUUAAGCAAUAUUACGGAGC, for which the “self-splicing fitness (ln)” value is, setting by setting: (30 °C) -2.62 ± 0.34; (37 °C) -2.15 ± 0.31.

Take CGUCAGCAAUAUUACGCCCU: the “self-splicing fitness (ln)” value is -1.89 ± 0.15 (30 °C) and -0.223 ± 0.23 (37 °C).

Turning to GGUAAGCAAUAUUACGUGUA, the “self-splicing fitness (ln)” value (30 °C) was -1.73 ± 0.078 and the “self-splicing fitness (ln)” value (37 °C) is -0.95 ± 0.086.

For UAGCAGCAAUAUUACGCCUA, the “self-splicing fitness (ln)” value (30 °C) is -0.551 ± 0.13 and the “self-splicing fitness (ln)” value (37 °C) was 0.446 ± 0.15.

As to GUGAAGCAAUAUUACGCGUU, the “self-splicing fitness (ln)” value is, setting by setting: (30 °C) -3.59 ± 0.2; (37 °C) -2.02 ± 0.21.

With GCUAAGCAAUAUUACGCAAG, where the note is “37 °C”, the “self-splicing fitness (ln)” value is -1.46 ± 0.28.

With UCCUAGCAAUAUUACGGCGG, the “self-splicing fitness (ln)” value by setting is: (30 °C) -3.94 ± 0.27; (37 °C) -2.92 ± 0.2.

For the sequence AGGAAGCAAUAUUACGGCAG, the “self-splicing fitness (ln)” value reads like this: (30 °C) -2.3 ± 0.31; (37 °C) -0.552 ± 0.32.

With GACCAGCAAUAUUACGCCUA, the “self-splicing fitness (ln)” value was -0.572 ± 0.11 (30 °C) and 0.226 ± 0.12 (37 °C).

On to ACCGAGCAAUAUUACGAGAU, for which the “self-splicing fitness (ln)” value (30 °C) is -2.96 ± 0.12 and the “self-splicing fitness (ln)” value (37 °C) was -2.48 ± 0.18.

For the sequence CCACAGCAAUAUUACGACUC, the “self-splicing fitness (ln)” value runs as follows: (30 °C) -2.46 ± 0.18; (37 °C) -2.76 ± 0.3.

Turning to CCCAAGCAAUAUUACGAGGU, the “self-splicing fitness (ln)” value runs as follows: (30 °C) -3.16 ± 0.091; (37 °C) -2.08 ± 0.086.

With GUCGAGCAAUAUUACGUUUG, the “self-splicing fitness (ln)” value reads like this: (30 °C) -2.54 ± 0.28; (37 °C) -2.11 ± 0.24.

Regarding GCUGAGCAAUAUUACGUUCC, the “self-splicing fitness (ln)” value was -1.48 ± 0.2 (30 °C) and -1.84 ± 0.35 (37 °C).

In the case of GCAUAGCAAUAUUACGCCGA, the “self-splicing fitness (ln)” value (37 °C) is -2.37 ± 0.25.

Consider GAUAAGCAAUAUUACGCCCG, for which the “self-splicing fitness (ln)” value was -2.05 ± 0.2 (30 °C) and -0.456 ± 0.24 (37 °C).

On to GGUAAGCAAUAUUACGCACA, for which the “self-splicing fitness (ln)” value runs as follows: (30 °C) -0.755 ± 0.12; (37 °C) 0.101 ± 0.15.

Regarding CCCAAGCAAUAUUACGUGCC, the “self-splicing fitness (ln)” value (30 °C) is -4.01 ± 0.29 and the “self-splicing fitness (ln)” value (37 °C) is -2.97 ± 0.34.

Turning to UCGUAGCAAUAUUACGGAGC, the “self-splicing fitness (ln)” value is, setting by setting: (30 °C) -2.59 ± 0.18; (37 °C) -2.35 ± 0.39.

As to AGAAAGCAAUAUUACGACUU, the “self-splicing fitness (ln)” value runs as follows: (30 °C) -0.252 ± 0.072; (37 °C) 0.222 ± 0.1.

Turning to AAUGAGCAAUAUUACGUGGG, the “self-splicing fitness (ln)” value (30 °C) is -4.39 ± 0.36 and the “self-splicing fitness (ln)” value (37 °C) is -2.87 ± 0.21.

Turning to UUUAAGCAAUAUUACGAAGU, the “self-splicing fitness (ln)” value (37 °C) was -1.62 ± 0.45.

Turning to GGAGAGCAAUAUUACGGGAA, the “self-splicing fitness (ln)” value runs as follows: (30 °C) -2.58 ± 0.33; (37 °C) -2.58 ± 0.38.

Consider CAAAAGCAAUAUUACGAUCC, for which the “self-splicing fitness (ln)” value by setting is: (30 °C) -2.58 ± 0.22; (37 °C) -1.26 ± 0.24.

UAUGAGCAAUAUUACGCUCG: the “self-splicing fitness (ln)” value was -2.09 ± 0.21 (30 °C) and -2.2 ± 0.35 (37 °C).

In the case of UCCAAGCAAUAUUACGAGGA, the “self-splicing fitness (ln)” value by setting is: (30 °C) -2.7 ± 0.2; (37 °C) -2.3 ± 0.23.

CUGCAGCAAUAUUACGCAUC: the “self-splicing fitness (ln)” value (37 °C) was -2.46 ± 0.3.

On to CCACAGCAAUAUUACGUCAU, for which the “self-splicing fitness (ln)” value was -3.67 ± 0.16 (30 °C) and -2.81 ± 0.16 (37 °C).

As to CUACAGCAAUAUUACGCGAC, the “self-splicing fitness (ln)” value reads like this: (30 °C) -1.03 ± 0.072; (37 °C) -0.76 ± 0.11.

For the sequence GUUGAGCAAUAUUACGGUGA, the “self-splicing fitness (ln)” value (37 °C) is -2.78 ± 0.44.

In the case of CCGAAGCAAUAUUACGAACG, the “self-splicing fitness (ln)” value runs as follows: (30 °C) -0.139 ± 0.077; (37 °C) 0.554 ± 0.1.

Regarding GUCAAGCAAUAUUACGGUUC, the “self-splicing fitness (ln)” value was -0.665 ± 0.068 (30 °C) and -0.255 ± 0.1 (37 °C).

Consider GUUAAGCAAUAUUACGGGGC, for which the “self-splicing fitness (ln)” value runs as follows: (30 °C) -3.5 ± 0.24; (37 °C) -2.58 ± 0.25.

On to CUCCAGCAAUAUUACGACAU, for which the “self-splicing fitness (ln)” value reads like this: (30 °C) -4.008 ± 0.026; (37 °C) -2.95 ± 0.039.

Source of the values: the supplement of paper PMC7877785.
